{"source": "paper PMC5391581", "key": {"[1]": {"molecular_target": "SV40 LT 131-627 cL557A (Simian Virus 40)", "assay": "SEC; Superdex 200 10/300 GL; 250 μg LT (0.8 μg/μL) incubated with 4 mM ATP and 1 mM MgCl2; 25 mM Tris pH 8.0, 250 mM NaCl, 0.5 mM TCEP; percent hexamer from peak areas; monomer to hexamer"}, "[2]": {"molecular_target": "SV40 LT 131-627 cS430T (Simian Virus 40)", "assay": "SEC; Superdex 200 10/300 GL; 250 μg LT (0.8 μg/μL) incubated with 4 mM UTP and 1 mM MgCl2; 25 mM Tris pH 8.0, 250 mM NaCl, 0.5 mM TCEP; percent hexamer from peak areas; monomer to hexamer"}, "[3]": {"molecular_target": "SV40 LT 131-627 cS430T (Simian Virus 40)", "assay": "SEC; Superdex 200 10/300 GL; 250 μg LT (0.8 μg/μL) incubated with 4 mM ATP and 1 mM MgCl2; 25 mM Tris pH 8.0, 250 mM NaCl, 0.5 mM TCEP; percent hexamer from peak areas; monomer to hexamer"}, "[4]": {"molecular_target": "SV40 LT 131-627 cW393A (Simian Virus 40)", "assay": "SEC; Superdex 200 10/300 GL; 250 μg LT (0.8 μg/μL) incubated with 4 mM ATP and 1 mM MgCl2; 25 mM Tris pH 8.0, 250 mM NaCl, 0.5 mM TCEP; percent hexamer from peak areas; monomer to hexamer"}, "[5]": {"molecular_target": "SV40 LT 131-627 tK419A (Simian Virus 40)", "assay": "SEC; Superdex 200 10/300 GL; 250 μg LT (0.8 μg/μL) incubated with 4 mM TTP and 1 mM MgCl2; 25 mM Tris pH 8.0, 250 mM NaCl, 0.5 mM TCEP; percent hexamer from peak areas; monomer to hexamer"}, "[6]": {"molecular_target": "SV40 LT 131-627 tK419A (Simian Virus 40)", "assay": "SEC; Superdex 200 10/300 GL; 250 μg LT (0.8 μg/μL) incubated with 4 mM ATP and 1 mM MgCl2; 25 mM Tris pH 8.0, 250 mM NaCl, 0.5 mM TCEP; percent hexamer from peak areas; monomer to hexamer"}, "[7]": {"molecular_target": "SV40 Large Tumor Antigen (LT) 131-627, wild type (Simian Virus 40)", "assay": "SEC; Superdex 200 10/300 GL; 250 μg LT (0.8 μg/μL) incubated with 4 mM UTP and 1 mM MgCl2; 25 mM Tris pH 8.0, 250 mM NaCl, 0.5 mM TCEP; percent hexamer from peak areas; monomer to hexamer"}, "[8]": {"molecular_target": "SV40 Large Tumor Antigen (LT) 131-627, wild type (Simian Virus 40)", "assay": "SEC; Superdex 200 10/300 GL; 250 μg LT (0.8 μg/μL) incubated with 4 mM ATP and 1 mM MgCl2; 25 mM Tris pH 8.0, 250 mM NaCl, 0.5 mM TCEP; percent hexamer from peak areas; monomer to hexamer"}}}
{"substance": "SV40 LT 131-627 cL557A (domain or fragment)", "values": [{"measurement": "percent hexamer formed (ATP + Mg++)", "setting": "[1]", "value": 99.9, "unit": "%"}, {"measurement": "stoichiometry N", "setting": "[1]", "value": 6}]}
{"substance": "SV40 LT 131-627 cS430T (domain or fragment)", "values": [{"measurement": "percent hexamer formed (UTP + Mg++)", "setting": "[2]", "value": 84.6, "unit": "%"}, {"measurement": "stoichiometry N", "setting": "[3]", "value": 6}]}
{"substance": "SV40 LT 131-627 cW393A (domain or fragment)", "values": [{"measurement": "percent hexamer formed (ATP + Mg++)", "setting": "[4]", "value": 97.9, "unit": "%"}, {"measurement": "stoichiometry N", "setting": "[4]", "value": 6}]}
{"substance": "SV40 LT 131-627 tK419A (domain or fragment)", "values": [{"measurement": "decrease in hexamer formation compared to WT (TTP + Mg++)", "setting": "[5]", "value": 25.2, "unit": "%"}, {"measurement": "percent hexamer formed (ATP + Mg++)", "setting": "[6]", "value": 83.9, "unit": "%"}, {"measurement": "stoichiometry N", "setting": "[6]", "value": 6}]}
{"substance": "SV40 Large Tumor Antigen (LT) 131-627, wild type (domain or fragment)", "values": [{"measurement": "percent hexamer formed (UTP + Mg++)", "setting": "[7]", "value": 69.4, "unit": "%"}, {"measurement": "stoichiometry N", "setting": "[8]", "value": 6}]}
